This is an account of results in patent US20080027006A1.

The target of test [1] is HR-C1 (1147-1185) (SARS coronavirus (Urbani strain)).
Test [2] shares this target. Description: CD thermal denaturation of the mixture at 222 nm.
The target is the same in test [3]. Description: SEC of equimolar mixture (Superdex 75).
Test [4] shares this target. Description: CD at 222 nm of the peptide mixture, 22 °C, 0.05 M K2PO4 buffer.
The target in test [5] is HR-C4 (1151-1185) (SARS coronavirus (Urbani strain)).
The target in test [6] is HR-C2 (1165-1185) (SARS coronavirus (Urbani strain)).
In test [7] the target is HR-C3 (1158-1185) (SARS coronavirus (Urbani strain)).

Like-named read-outs stand apart in the source and are kept apart here.

B1: HR-N7 (895-929) (peptide)
peptide: QNVLYENQKQIANQFNKAISQIQESLTTTSTALGK
modifications: not checked
In the case of B1, in test [1], the [θ]222 observed (degrees·cm^2·dmol^-1) is -7400.

B2: HR-N2 (916-973) (peptide)
peptide: IQESLTTTSTALGKLQDVVNQNAQALNTLVKQLSSNFGAISSVLNDILSRLDKVEAEV
modifications: not checked
For the molecule B2, in test [1], the T1/2 of the complex came out at 74 °C and the [θ]222 observed (degrees·cm^2·dmol^-1) is -17900. Further, in test [2], the rise of T1/2 relative to HR-N2 alone was found to be 6 °C.

B3: HR-N9 (909-943) (peptide)
peptide: FNKAISQIQESLTTTSTALGKLQDVVNQNAQALNT
modifications: not checked
For the molecule B3, in test [1], the T1/2 of the complex was 36 °C and the [θ]222 observed (degrees·cm^2·dmol^-1) was -10800. For the same molecule, the rise of T1/2 relative to HR-C1 alone in test [2] stood at 3 °C. For the same molecule, in test [3], the higher molecular weight complex, percent of observed SEC area units turned out to be 30%.

B4: HR-N8 (902-936) (peptide)
peptide: QKQIANQFNKAISQIQESLTTTSTALGKLQDVVNQ
modifications: not checked
Turning to B4, in test [1], the [θ]222 observed (degrees·cm^2·dmol^-1) was -7900.

B5: HR-N5 (882-916) (peptide)
peptide: MQMAYRFNGIGVTQNVLYENQKQIANQFNKAISQI
modifications: not checked
Regarding B5, the [θ]222 observed (degrees·cm^2·dmol^-1) in test [4] is -8500.

B6: HR-N10 (916-950) (peptide)
peptide: IQESLTTTSTALGKLQDVVNQNAQALNTLVKQLSS
modifications: not checked
As for B6, the T1/2 of the complex in test [5] is 56 °C; in test [1], 57 °C. Besides, the [θ]222 observed (degrees·cm^2·dmol^-1) in test [5] is -17900; in test [1], -17700; in test [6], -3800; in test [7] it was -4900. Also, in test [2], the increase of T1/2 from HR-C1 stood at 24 °C.

B7: HR-N11 (923-957) (peptide)
peptide: TSTALGKLQDVVNQNAQALNTLVKQLSSNFGAISS
modifications: not checked
On to B7, for which, in test [1], the [θ]222 observed (degrees·cm^2·dmol^-1) was -8000.

B8: HR-N6 (888-922) (peptide)
peptide: FNGIGVTQNVLYENQKQIANQFNKAISQIQESLTT
modifications: not checked
Regarding B8, the [θ]222 observed (degrees·cm^2·dmol^-1) in test [1] is -8600.
